We go through 41 sequences from the nanobody polyreactivity screen of Harvey et al. (2022).

The data set is described as follows: yeast display, Sf9 membrane polyspecificity reagent, FACS + sequencing; frameworks hold sequencing errors. In short, it runs like this: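 Galactose-induced (36–48 hours) yeast carrying a synthetic nanobody display library were exposed to 10% biotinylated, detergent-solubilized Sf9 membrane reagent at 4 °C for 1 hour. FACS followed streptavidin microbead enrichment, using low and high (top ~1%) gates for expression (anti-HA) and reagent binding (streptavidin). Colony PCR, MiSeq 2 × 250 sequencing and CDR-length filtering followed. Labels for polyreactivity reflect the gate of origin.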
For “QVQLVESGGGLVQAGGSLRLSCAASGSIFSLNAMGWYRQAPGKERELVAASGGGSTYYADSVKGRFTISRDNAKNTVYLQMNSLKPEDSAVYYCAARVLTDELDYWGQGTQVTVSS”, the “polyreactivity (PSR sort gate)” value is reported as “low polyreactivity”.
“QVQLVESGGGLVQAGGSLRLSCAASGSIFSLYAMGWYRQAPGKERELVAAISQSGDSTFYADSVKGRFTISRDHAKNTVYLQMNSLKPEYTAVSYCAADPRNKAWKWDDYWGQGTQVTVSS”: the “polyreactivity (PSR sort gate)” value is given as “low polyreactivity”.
For “QVQLVESGGGLVQAGGSLRLSCAASGSIFSNNAMGWYRQAPGKERELVAAISRSGTNTYYADSVKGRFTISRDNAKNTVYLQMNSLKPEDTAVEYCAARGVYVKYYYWGQGTQVTVSS”, the “polyreactivity (PSR sort gate)” value is on record as “high polyreactivity”.
Under “QVQLVESGGGLVQAGGSLRLSCAASGSIFSNYAMGWYRQAPGKERELVAAISRNGGSTSYADSVKGRFTISRDNAKNTVYLQMNSLKPEDTAVYYCAAVYVTGSYRYGYWGQGTQVTVSS” stands “high polyreactivity”.
Take “QVQLVESGGGLVQAGGSLRLSCAASGSIFSNYAMGWYRQAPGKERELVAAITLSSGGTYYADSVKGRFTISRDNAKNTVYLQMNSLKPEDTAVYYCAAQYKYFIHRYYYWGQGTQVTVSS”: the “polyreactivity (PSR sort gate)” value is reported as “high polyreactivity”.
Then “QVQLVESGGGLVQAGGSLRLSCAASGSIFSPYAMGWYRQAPGKERELVAAISYGVGNTYYADSVKGRFTISRDNAKNTVYLQMNSLIPEDTAVYYCAAEEYDYVFPHYFTKGYYWGQGTQVTVSS”, with “high polyreactivity”.
Then “QVQLVESGGGLVQAGGSLRLSCAASGSIFSPYAMGWYRQAPGKERELVAAITWSGGSTYYADSVKGRFTISRDNAKNTVYLQMNSLKPEDTAVYYCAATYYVNAWRYYYWGQGTQVTVSS”, with “high polyreactivity”.
For the sequence “QVQLVESGGGLVQAGGSLRLSCAASGSIFSQYAMGWYRQAPGKERELVAAIRTGGRTHYADSVKGRFTISRDNAKKTVYLQMNSLKPEDTAVYYCAAQARYYWGTTYEYWGQGTQVTVSS”, the “polyreactivity (PSR sort gate)” value was “high polyreactivity”.
As to “QVQLVESGGGLVQAGGSLRLSCAASGSIFSQYAMGWYRQAPGKERELVAAITSSGGRTYYADSVKGRFTISRDNAKNTVYLQMNSLKPEDTAVYYCAARPYSKRHEYWGQGTQVTVSS”, the “polyreactivity (PSR sort gate)” value was “high polyreactivity”.
For “QVQLVESGGGLVQAGGSLRLSCAASGSIFSQYVMGWYRQAPGKERELVAAISWSGGHTYYADSVKGRFTISRDNAKNTVYLQMNSLKPEDTAVYYCATVPRKTPGNAELDYWGQGTQVTVSS”, the “polyreactivity (PSR sort gate)” value is “high polyreactivity”.
For the sequence “QVQLVESGGGLVQAGGSLRLSCAASGSIFSQYVMGWYRQAPGKERELVAAISWSGGHTYYADSVKGRFTISRDNAKNTVYLQMNSLKPEDTAVYYCRAFFRRDYWGQGTQVTVSS”, the “polyreactivity (PSR sort gate)” value is “high polyreactivity”.
Under “QVQLVESGGGLVQAGGSLRLSCAASGSIFSRNAMGWYRQAPGKERELVAAITGSGSSTYYADSVKGRFTISRDNAKNTVYLQMNSLKPEDSAVYYCNAARVYLSEWGQGTQVTVSS” stands “high polyreactivity”.
As for “QVQLVESGGGLVQAGGSLRLSCAASGSIFSRNAMGWYRQAPGKERELVAGISTGGSTNYADSVKGRFTISRDNAKNTVYLQMNSLKPEDTAVYYCAAPLAYEGDDWGQGTQLTVSS”, the “polyreactivity (PSR sort gate)” value was “low polyreactivity”.
Then “QVQLVESGGGLVQAGGSLRLSCAASGSIFSRYAMGWYRQAPGKERELVAAITWSGGSTYYADSVKGRFTISRDNAKNTVYLQMNSLKPEDTAVYYCAAVGYAPYNHRYDYWGQGTQVTVSS”, with “low polyreactivity”; and “QVQLVESGGGLVQAGGSLRLSCAASGSIFSSNAMGWYIQAPGKERELVAAITYSGGSTYYADSVKGRFTISRDNAKNTVYLQMNSLKPEDTAVYYCAADNGNWYDGYSYDYWGQGTQVTVSS”, with “low polyreactivity”.
Under “QVQLVESGGGLVQAGGSLRLSCAASGSIFSSYAMGWYRPAPGNERELVAAISKSGGSTYYADSVKGRFTISRDNAKNTVYLQMNSLKPEDTAVYYCAARTRQLEYNSWGQGTQVTVSS” stands “high polyreactivity”.
“QVQLVESGGGLVQAGGSLRLSCAASGSIFSSYAMGWYRQAPGKERALVAGISRRGGSTYYADSVKGRFTISRDNAKNTVYLQMNSLKPEDTAVYYCNARSAGSDLDYWGQGTQVTVSS”: the “polyreactivity (PSR sort gate)” value is “high polyreactivity”.
Under “QVQLVESGGGLVQAGGSLRLSCAASGSIFSSYAMGWYRQAPGKEREFVAAISWGGGSTYYADSVKGRFTISRDNAKNSVYLQMNSLKPEDTAVYYCAVETWLYPYDYWGQGTQVTVSS” stands “high polyreactivity”; under “QVQLVESGGGLVQAGGSLRLSCAASGSIFSSYAMGWYRQAPGKERELVAAISQSGGDTYYADSVKGRFTISRDNAKNTVYLQMNSLKPEDTAVYYCNRDFSLVVHYNFDYWGQGTQVTVSS”, “low polyreactivity”.
For the sequence “QVQLVESGGGLVQAGGSLRLSCAASGSIFSSYAMGWYRQAPGKERELVAAISSSGDSTYADSVKGRFTISRDNAKNTVYLQMNSLKPEDTAVYDCAVGGAGSDDYWGQGTQVTVSS”, the “polyreactivity (PSR sort gate)” value is “low polyreactivity”.
As for “QVQLVESGGGLVQAGGSLRLSCAASGSIFSSYAMGWYRQAPGKERELVASISRRGGSTYYADSVKGRFTISRDNAKNTVYLQMNSLKPEDTAVYYCNASGGPYRYYYWGQGTQVTVSS”, the “polyreactivity (PSR sort gate)” value is given as “low polyreactivity”.
Under “QVQLVESGGGLVQAGGSLRLSCAASGSIFSSYTMGWYRQAPGKERELVASITSGDSTNYADSVKGRFTISRDNAKNTVYLQMNSLKPEDTAVYYCNKSTLGVPVYEVIFEYWGQGTQVTVSS” stands “low polyreactivity”.
Then “QVQLVESGGGLVQAGGSLRLSCAASGSIFSSYVMGWYRQAPGKERELVAAITFSGATTYYADSVKGRFTISRDNAKNTVYLQMNSLKPEDTAVYYCATKAYTTGRYYWGQGTQVTVSS”, with “high polyreactivity”; and “QVQLVESGGGLVQAGGSLRLSCAASGSIFSTNDMGWYRQAPGKERELVAAISVSGGSTYYADSVKGRFTISRDNAKNTVYLQMNSLKPEDTAVYYCNADYTRGTMYYWGQGTQVTGSS”, with “low polyreactivity”.
Take “QVQLVESGGGLVQAGGSLRLSCAASGSIFSTYAMGWYRQAPGKERELVAAINRGTSTNYADSVKGRFTISRDNAKNTVYLQMNSLKPEDTAVYYCAAYYRGRYGPRRSEYWGQGTQVTVSS”: the “polyreactivity (PSR sort gate)” value is listed as “high polyreactivity”.
For the sequence “QVQLVESGGGLVQAGGSLRLSCAASGSIFSTYAMGWYRQAPGKERELVAAISTRGGRTYYADSVKGRFTISRDNAKNTVYLQMNSLKPEDTAVYYCAAKRGKTYQRFDYWGQGTQVTVSS”, the “polyreactivity (PSR sort gate)” value was “high polyreactivity”.
As to “QVQLVESGGGLVQAGGSLRLSCAASGSIFSTYARGWYRQAPGKERELVATITSGGNTNYADSVKGRYTISRDNAKNTVYLQMNSLKPEDTAVDYSNKEWDGDGYTDDWDYDYWGQGTQVTVSS”, the “polyreactivity (PSR sort gate)” value was “low polyreactivity”.
As for “QVQLVESGGGLVQAGGSLRLSCAASGSIFSTYTMGWYRQAPGKERELVATIRLRGGSTYYADSVKGRFTISRDNAKNTVYLQMNSLKPEDTAVYYCNKAYRYYQYGYWGQGTQVTVSS”, the “polyreactivity (PSR sort gate)” value is reported as “high polyreactivity”.
Take “QVQLVESGGGLVQAGGSLRLSCAASGSIFSVNAMGWYRQAPGKERELVATITAGGGSTNYADSVKVRFTISRDNAKNTVYLQMNSLKPEDTAVYYCAADYWYVSWYDYWGQGTQVTVSS”: the “polyreactivity (PSR sort gate)” value is recorded as “low polyreactivity”.
Then “QVQLVESGGGLVQAGGSLRLSCAASGSIFSVYAMGWYRQAPGKERELVAAIDFSGGSTYYADSVKGRFTISRDNPKNTVYLQMNSLKPEDTAVYYCAAEYLPYPEYEYDYWGQGTQVTVSS”, with “low polyreactivity”.
With “QVQLVESGGGLVQAGGSLRLSCAASGSIFSVYAMGWYRQAPGKERELVAAISTRGGSTYYADSVKGRFTISRDNAKNTVYLQMNSLKPEDTAVYYCAKRWPQYTDYKPMYYWGLGTQVTVSS”, the “polyreactivity (PSR sort gate)” value is on record as “high polyreactivity”.
Turning to “QVQLVESGGGLVQAGGSLRLSCAASGSIFSVYARGWSRQAPGKERELVAAITSGTSTYADSVKGRFTISRDNAKNTVYLQMNSLKPEDTAVYACAAESGSPGYYYWGQGTQVTVSS”, the “polyreactivity (PSR sort gate)” value is “low polyreactivity”.
As for “QVQLVESGGGLVQAGGSLRLSCAASGSIFSWYAMGWYRQAPGKERELVAAISNSGGSTYYADSVKGRFTISRDNAKNTVYLQMNSLKPEDTAVYYCAAYDGDTYDWGQGTQVTVSS”, the “polyreactivity (PSR sort gate)” value was “high polyreactivity”.
Take “QVQLVESGGGLVQAGGSLRLSCAASGSIFSYKTMGWYRQAPGKERELVAAISSDGSTYYADSVKGRFTISRDNAKNTVYLQMNSLKPEDTAVYYCAATYYPYEHYYWGQGTQVTLSS”: the “polyreactivity (PSR sort gate)” value is recorded as “low polyreactivity”.
Under “QVQLVESGGGLVQAGGSLRLSCAASGSIFSYNAMGWYRQAPGKERELVAAIDWSGGSTYYADSVKGRFTISRDNAKNTVYLQMNSLKPVDTAVYYCNAVGVFYYSYHYHQYDYWGQGTQVTVSS” stands “low polyreactivity”; under “QVQLVESGGGLVQAGGSLRLSCAASGSIFSYNAMGWYRQATGKERELVARITRGGDGTYYADSVKGRFTISRDNAKNTVYLQMNSLKPEDTAVYYCAATPYWYHLRVEGGYWGQGTQVTVSS”, “low polyreactivity”; under “QVQLVESGGGLVQAGGSLRLSCAASGSIFSYYAMGWNRQAHGKERELVASITRGGSTYYADSVKGRFTISRDNAKNTVYLQMNSLKPEDSAVYYCAAAARYYSRYDFPNNYWGQVTQVTVSS”, “low polyreactivity”.
On to “QVQLVESGGGLVQAGGSLRLSCAASGSIFSYYAMGWYRQAPGKERELVAAITSGGATTYYADSVKGRFTISRDNAKNTVYLQMNSLKPEDTAVYYCAAGYYVYYRWWELDYWGQGTQVTVSS”, for which the “polyreactivity (PSR sort gate)” value is reported as “low polyreactivity”.
Under “QVQLVESGGGLVQAGGSLRLSCAASGSIFSYYAMGWYRQAPGKERELVAAITTGGGTYYADSVKGRFTISRDNAKNTVYLQMNSLKPEDTAVYYCAKDGYPDQDVQVFNDSDYWGQGTQVTVSS” stands “low polyreactivity”; under “QVQLVESGGGLVQAGGSLRLSCAASGSIFSYYAMGWYRQAPGKERELVATISSGGSTNYADSVKGRFTISRDNAKNTVYLQMNSLKPEDTAVYYCAATIGHNGFDYWGQGTQVTVSS”, “low polyreactivity”; under “QVQLVESGGGLVQAGGSLRLSCAASGSIFSYYDMGWYRQAPGKERELVAAITTGGSTNYADSVKGRFTISRDNAKNTVYLQMNSLKPEDTAVYYCNAGRWWSRGYGYWGQVTQVTVSS”, “high polyreactivity”.
